Test results: the supplement of paper PMC10724198
± gives the standard deviation of the averaged measurements.

Test system: Saccharomyces cerevisiae
Experiment: protein stability index of tFT-peptide fusion (C-terminal peptide) (PSI (0-1 scale)); higher = more stable (slower turnover)
Conditions: temperature: 30 C
Description: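 MPS profiling in S. cerevisiae of the yeast C-terminome library: the last 12 aa of each annotated ORF are fused to the C-terminus of a sfGFP-mCherry timer, after a GGGS linker. Cells are FACS-sorted into 8 mCherry/sfGFP bins and deep-sequenced. PSI runs from 0 (unstable) to 1 (stable); wild type and das1Δ backgrounds, two technical replicates each.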

[1] = genetic background: das1 deletion

| Sequence | protein stability index [1] | protein stability index (genetic background: wild type) |
| --- | --- | --- |
| QAKEVFDKMQKE [FMP23 C-terminal 12 aa] | 0.7133 ± 0.0026 | 0.686 ± 0.065 |
| TYSEREGNLLNS [RPR2 C-terminal 12 aa] | 0.7159 ± 0.0046 | 0.675 ± 0.0073 |
| IKIFSERCDGKV [JJJ2 C-terminal 12 aa] | 0.7066 ± 0.002 | 0.683 ± 0.0069 |
| NVYRLTLMIFRL [YMR013W-A C-terminal 12 aa] | 0.428 ± 0.016 | 0.249 ± 0.0095 |
| QHSRGSPNNSNN [YKU80 C-terminal 12 aa] | 0.701 ± 0.0071 | 0.708 ± 0.039 |
| KMDKRAKNSDSA [RPL8A C-terminal 12 aa] | 0.691 ± 0.0034 | 0.6886 ± 0.0018 |
| VKHAEYAINAFF [YPR147C C-terminal 12 aa] | 0.709 ± 0.018 | 0.682 ± 0.026 |
| DITYDDYKSIDF [SUT1 C-terminal 12 aa] | 0.694 ± 0.024 | 0.703 ± 0.095 |
| AKSLIHLFTSNQ [NRM1 C-terminal 12 aa] | 0.694 ± 0.042 | 0.7334 ± 0.0027 |
| KLCTGIVWAPRV [YAR070C C-terminal 12 aa] | 0.681 ± 0.0084 | 0.7035 ± 0.0022 |
| MTGTCFMTDLAP [YKL097C C-terminal 12 aa] | 0.721 ± 0.024 | 0.695 ± 0.021 |
| KSLFSIIDDLQS [MSH6 C-terminal 12 aa] | 0.731 ± 0.0073 | 0.727 ± 0.021 |
| SSTDMNGQPIEF [SKA1 C-terminal 12 aa] | 0.6884 ± 0.0061 | 0.67 ± 0.015 |
| PTPKALTNEKTH [MGR1 C-terminal 12 aa] | 0.687 ± 0.017 | 0.664 ± 0.015 |
| DRCKEAVDHLMS [ISM1 C-terminal 12 aa] | 0.686 ± 0.011 | 0.70544 ± 0.00054 |
| SRKHTTRSGGRW [HOS3 C-terminal 12 aa] | 0.695 ± 0.017 | 0.6554 ± 0.00091 |
| SEEEEEEEWKGF [RRP1 C-terminal 12 aa] | 0.68 ± 0.011 | 0.673 ± 0.033 |
| HDELKYPVDMVI [PDR17 C-terminal 12 aa] | 0.705 ± 0.022 | 0.757 ± 0.058 |
| LSEKIYDAFGKL [MUS81 C-terminal 12 aa] | 0.723 ± 0.015 | 0.7271 ± 0.0047 |
| GQPPAPFRLRSD [SDS3 C-terminal 12 aa] | 0.7109 ± 0.00038 | 0.709 ± 0.049 |
| ESSSPSQLQHEA [PHO84 C-terminal 12 aa] | 0.6938 ± 0.006 | 0.682 ± 0.024 |

| Sequence | protein stability index [1] | protein stability index (genetic background: wild type) |
| --- | --- | --- |
| ERYTSIESEIVV [APE4 C-terminal 12 aa] | 0.6735 ± 0.0063 | 0.673 ± 0.023 |
| FRALAELYNLVL [GAS5 C-terminal 12 aa] | 0.701 ± 0.02 | 0.681 ± 0.013 |
| LKDQIVETRTPI [ERG27 C-terminal 12 aa] | 0.707 ± 0.042 | 0.664 ± 0.02 |
| EEVLEETKEKVE [PRT1 C-terminal 12 aa] | 0.689 ± 0.034 | 0.685 ± 0.013 |
| PKFSKPDPLKRD [SAC1 C-terminal 12 aa] | 0.72 ± 0.01 | 0.6853 ± 0.005 |
| VGITSVGTRGNY [YNL140C C-terminal 12 aa] | 0.674 ± 0.015 | 0.717 ± 0.097 |
| TGNGPNLDNLKY [ARA1 C-terminal 12 aa] | 0.722 ± 0.0074 | 0.641 ± 0.019 |
| ENWIHVSCLSFM [LIN1 C-terminal 12 aa] | 0.6634 ± 0.0048 | 0.6503 ± 0.0039 |
| SDLNVLLQIKHS [YNL228W C-terminal 12 aa] | 0.7201 ± 0.00055 | 0.31 ± 0.015 |
| KLKFLQNTYNND [CCE1 C-terminal 12 aa] | 0.674 ± 0.015 | 0.635 ± 0.0079 |
| TASQILKFEGRI [GRE2 C-terminal 12 aa] | 0.718 ± 0.035 | 0.695 ± 0.057 |
| YEEGESIFGSLF [REV7 C-terminal 12 aa] | 0.71 ± 0.029 | 0.7145 ± 0.0024 |
| ATPPYQVFKQQL [FMN1 C-terminal 12 aa] | 0.698 ± 0.071 | 0.668 ± 0.028 |
| ELASSILKELKL [KIN1 C-terminal 12 aa] | 0.707 ± 0.022 | 0.703 ± 0.054 |
| RCNVYIIRCIHH [YOL164W-A C-terminal 12 aa] | 0.5183 ± 0.00055 | 0.51 ± 0.037 |
| HELKTHLPLNLI [SMT1 C-terminal 12 aa] | 0.707 ± 0.018 | 0.697 ± 0.037 |
| DRIAAQTLEEDE [RPS19A C-terminal 12 aa] | 0.687 ± 0.031 | 0.693 ± 0.05 |
| PIRTPDAKKPKI [BUR2 C-terminal 12 aa] | 0.715 ± 0.013 | 0.8 ± 0.13 |
| RKSTRSDNPHEA [CBF1 C-terminal 12 aa] | 0.6989 ± 0.0016 | 0.687 ± 0.017 |
| RRQSLPKRFPLI [YAR035C-A C-terminal 12 aa] | 0.717 ± 0.014 | 0.697 ± 0.022 |
